Test [1] concerns the target T1, deletion mutant CKAP4-HA ΔLZ (human, UniProt Q07065 1-602).
T1 construct: not shown: HA tag
T1 sequence: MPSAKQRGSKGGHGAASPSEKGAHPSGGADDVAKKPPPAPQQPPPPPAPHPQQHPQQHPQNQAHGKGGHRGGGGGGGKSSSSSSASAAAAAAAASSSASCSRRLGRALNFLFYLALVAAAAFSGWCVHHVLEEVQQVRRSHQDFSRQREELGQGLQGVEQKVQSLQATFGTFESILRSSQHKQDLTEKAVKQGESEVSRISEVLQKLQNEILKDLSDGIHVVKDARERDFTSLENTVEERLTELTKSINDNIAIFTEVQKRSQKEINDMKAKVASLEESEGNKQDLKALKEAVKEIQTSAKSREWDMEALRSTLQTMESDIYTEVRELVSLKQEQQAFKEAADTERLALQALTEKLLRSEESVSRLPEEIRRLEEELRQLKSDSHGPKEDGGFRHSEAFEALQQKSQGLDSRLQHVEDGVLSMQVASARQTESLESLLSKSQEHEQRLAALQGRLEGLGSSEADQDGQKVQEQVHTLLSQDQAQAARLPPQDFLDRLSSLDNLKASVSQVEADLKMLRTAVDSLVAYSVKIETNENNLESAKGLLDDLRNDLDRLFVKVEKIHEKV
The test is described as follows: co-IP with anti-FLAG antibody from X293T/Dkk1-FLAG cell lysate, immunoblot with anti-HA antibody. The text has this: A lysate (Input) of X293T/Dkk1-FLAG cells in which wild-type CKAP4-HA (WT) or a deletion mutant CKAP4-HA (ΔLZ) was transiently expressed was immunoprecipitated with an anti-FLAG antibody, and then the cell lysate (Input) and the immunoprecipitates (IP) were subjected to the detection of HA and Dkk1 using an anti-HA antibody and an anti-Dkk1 antibody, respectively. The results are shown in the lower right panel in FIG. 2 (e). […] Namely, it was confirmed that a CRD-1 domain located on the N-terminal side of Dkk1 and a leucine zipper domain of CKAP4 were necessary for the binding between Dkk1 and CKAP4.

The target in test [2] is p85α of S2-CP8 cells (endogenous) (human, UniProt P27986 2-724). The test is described as follows: co-IP with anti-CKAP4 antibody from S2-CP8 cell lysate (control shRNA or Dkk1 shRNA), immunoblot. As for the experimental part:
A lysate (Input) of S2-CP8 cells in which control shRNA or Dkk1 shRNA (Dkk1) was stably expressed was prepared. The lysate was immunoprecipitated with an anti-CKAP4 antibody. Subsequently, the cell lysate (Input) and the immunoprecipitates (IP) were subjected to the detection of p85α, p110β, CKAP4 and Dkk1 using an anti-p85α antibody, an anti-p110β antibody, an anti-CKAP4 antibody and an anti-Dkk1 antibody, respectively.

Chain of p85α of S2-CP8 cells (endogenous) (P27986 2-724): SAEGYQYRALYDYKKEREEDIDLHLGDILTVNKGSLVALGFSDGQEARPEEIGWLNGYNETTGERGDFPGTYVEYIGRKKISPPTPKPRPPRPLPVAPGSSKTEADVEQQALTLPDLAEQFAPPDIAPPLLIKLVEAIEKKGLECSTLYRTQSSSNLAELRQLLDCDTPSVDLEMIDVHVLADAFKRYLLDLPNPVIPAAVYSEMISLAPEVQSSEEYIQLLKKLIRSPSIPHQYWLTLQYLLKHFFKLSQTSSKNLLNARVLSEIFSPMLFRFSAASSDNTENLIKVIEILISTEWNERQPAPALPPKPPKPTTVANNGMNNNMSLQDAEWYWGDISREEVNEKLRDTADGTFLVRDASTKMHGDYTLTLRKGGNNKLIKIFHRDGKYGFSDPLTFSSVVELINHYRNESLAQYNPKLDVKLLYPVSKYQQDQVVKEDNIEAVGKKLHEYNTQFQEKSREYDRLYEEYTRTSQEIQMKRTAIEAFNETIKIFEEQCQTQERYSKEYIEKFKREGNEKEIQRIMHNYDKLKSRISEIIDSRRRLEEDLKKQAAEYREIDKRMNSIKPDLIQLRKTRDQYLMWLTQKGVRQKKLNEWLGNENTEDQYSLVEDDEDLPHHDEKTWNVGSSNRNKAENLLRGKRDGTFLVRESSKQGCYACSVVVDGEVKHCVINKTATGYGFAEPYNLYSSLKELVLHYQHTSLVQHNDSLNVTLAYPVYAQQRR

B1: Dkk1-FLAG (wild-type human Dkk1 tagged with FLAG at the C-terminal) (ligand, UniProt O94907 32-266, looked up)
chain: TLNSVLNSNAIKNLPPPLGGAAGHPGSAVSAAPGILYPGGNKYQTIDNYQPYPCAEDEECGTDEYCASPTRGGDAGVQICLACRKRRKRCMRHAMCCPGNYCKNGICVSSDQNHFRGEIEETITESFGNDHSTLDGYSRRTTLSSKMYHTKGQEGSVCLRSSDCASGLCCARHFWSKICKPVLKEGQVCTKHRRKGSHGLEIFQRCYCGEGLSCRIQKDHHQASNSSRLHTCQRH
notes: Expressed in MDCK or X293T cells; pulled down from cell lysates with an anti-FLAG antibody; also called WT-FLAG; wild-type Dkk1-FLAG (WT); not shown: FLAG tag at the C-terminal
B1: the binding result in test [1] is on record as “no binding”.

B2: CKAP4 of S2-CP8 cells (endogenous) (receptor)
chain: MPSAKQRGSKGGHGAASPSEKGAHPSGGADDVAKKPPPAPQQPPPPPAPHPQQHPQQHPQNQAHGKGGHRGGGGGGGKSSSSSSASAAAAAAAASSSASCSRRLGRALNFLFYLALVAAAAFSGWCVHHVLEEVQQVRRSHQDFSRQREELGQGLQGVEQKVQSLQATFGTFESILRSSQHKQDLTEKAVKQGESEVSRISEVLQKLQNEILKDLSDGIHVVKDARERDFTSLENTVEERLTELTKSINDNIAIFTEVQKRSQKEINDMKAKVASLEESEGNKQDLKALKEAVKEIQTSAKSREWDMEALRSTLQTMESDIYTEVRELVSLKQEQQAFKEAADTERLALQALTEKLLRSEESVSRLPEEIRRLEEELRQLKSDSHGPKEDGGFRHSEAFEALQQKSQGLDSRLQHVEDGVLSMQVASARQTESLESLLSKSQEHEQRLAALQGRLEGLGSSEADQDGLASTVRSLGETQLVLYGDVEELKRSVGELPSTVESLQKVQEQVHTLLSQDQAQAARLPPQDFLDRLSSLDNLKASVSQVEADLKMLRTAVDSLVAYSVKIETNENNLESAKGLLDDLRNDLDRLFVKVEKIHEKV
notes: Used in lysates (IP, immunoblot) and on unfixed cells (staining)
As to B2, in test [2], the binding result was “binds”.

These data come from patent publication US20180037649A1 (OSAKA UNIVERSITY, published 2018).
